Target: T1, PDZ3 (the third PDZ domain of the neuronal signaling protein PSD-95/SAP90, residue 303-395) (UniProt P31016 303-395)
T1 construct: third PDZ domain of PSD-95/SAP90, residues 303-395; 15N-labelled for the NMR titration; also called PDZ3^303-395
Assay: NMR titration; 2D 1H-15N HSQC of 15N-labelled PDZ3 303-395 (20 uM) titrated with CRIPT peptide 0-100 uM; 308 K; 20 mM sodium phosphate, 50 mM NaCl, pH 7.0; no osmolyte; single-site fit of 12 backbone amides, averaged
Settings: both partners purified

T1 sequence (P31016 303-395): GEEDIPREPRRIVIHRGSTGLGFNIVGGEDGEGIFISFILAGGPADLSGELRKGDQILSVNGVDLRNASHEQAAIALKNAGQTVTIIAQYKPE

B1: C-terminal peptide from CRIPT (Ac-TKNYKQTSV-COOH) (peptide)
peptide: Ac-TKNYKQTSV-OH
notes: C-terminal nine residues of CRIPT; also called CRIPT peptide; source: synthetic peptide (APeptide Co. Ltd, Shanghai, China)
With B1 the Kd was about 13 µM.

Reference: PMC7511342, “Polyol and sugar osmolytes can shorten protein hydrogen bonds to modulate function” (Communications Biology, 2020)
